Assay results reported in the DeepSol protein solubility set.

Experiment: soluble on expression in E. coli; label from the status in PepcDB or PDB records

Sequence | soluble on expression in E. coli
MGSDKIHHHHHHMSGYKVFIVDDEADIALILKLQLEDAGYRTMRARDGIEALDALERESFDLVLLDIRMPRMDGIEVLERIRDRWPDLVVIMMTAHGSEDIAVEAMKKGAVDYISKPFSSDDMKKRVERAIQFNRTRLENERLQRVLDEERRKMGAILRGMADLLVAVDREGRIITINRAAEERFGIAADGVQNQPVELLLKTDIPGERLPCRVVLATGDPCLDVTYAVQAGGGMIPVLSSATPLKGAGGEMMGCVEIIRDISTLKALEREREDFVSMLSHDLKTPITAVVGSIDLVREGRIGPVNAEQRSYLDSAMESCAEMVDMIDTLLDVHRFEAGRMVMAARLEDLGPLMARTLGRFDSVARRAGIALVLTLPDYPLALSLDRNQFARLMGNLIANAIKFTQEGGEIEVSARLLNDPAELVGRIPRESYPDVPLPPLNPHLLITVRDTGVGIPADSLVSIFDRFVQARNRRLGKSTGTGLGLAFCRKVMDAHHGYIWAESVEGEGSSFNMLFPLTNEAYAATGG | not soluble
MGSDKIHHHHHHMVNPKLPVIWYGGDYYPEQWDEETFERDIRMFKEAGINVVTIGVFSWSLIQPDENTYDFSFFEKVMDRLYKEGIYVCLATPTSAPPHWMTQKYPEILFTDVNGVKREKGGRQNFCPNSEKYRYFARNIAEKLAEHFKDHPALVLWHVNNEYLNYCYCDICRGKFQNWLKEKYGTLDELNRRWNTRFWSQTFTAWEEIPVPTTRSVLVWRKDRYQSVLPELYLDYRRFMTQSMLECFLEEYRAIKKHTPDIPVTTNLIAATFKEWNYFEWAKHMDVAAWDNYPGYKEDFSVISLRHSLIRCLKEGKPFVLMEQSPSQACWRWYNPQKRPGEMRLWSYHALAHGAETLMFFQLRQSKGGVEKFHGAVITHVDSPNTRVFQEVKRVGEEIKSLSDILDARVVSQTALLFDWESWWAMEDTLTPSVDFRYLNEVQKYFKALVKTGLGVDVVGKDQNFERYRVLVAPVLYMVGKELAQKLKDYVSNGGILILTTMSGIVDEDDQVVLGGYPGYLRDLMGGYVEEIDALPPEEKNEILMFGKRYECSLVFDYIKTTTAEVLGRFGRDYYMNEPAVLRNNYGKGWVYYVGSSTSFDLVWDLVKFMEREHNLRAEIAPPDDVEVIKKIKGEKIFYFLFNHSHELQIVDLPEGMFRDLIKGNLYEKKVKLQPLDVLILLKE | not soluble
MAHHHHHHMEYDDGEYGRESSVEALAQSQESEQVASAASGLPESSSSAGSAKPSFRILSTRQLAQWARVRHQMDVGCSGNTVWTVSSAKHGNGVLHLMRHHDLNNFWQSDGVLPHVIRIQLGQLTPVEAMAVYVNSAVDQSYSPRVIRVKAGTHNGDMTEVAKADIGAGQECGWVLITLREMAGDDGDDVEGGGPNDGGGGVAAGVRIQHQQQEVRPRQQDGGAPEGGAASSYSPPIPYSEVAAALGHGNHATPSSAGVQTSAAMPRIPRSTSNPADRWLWCTLIDIYICENQFNGRDCHLRGIRLMGPRYEELERVSNADATGTVTCARPLQGGEPLEGTADELQLR | not soluble
MIEINNLSKRYRNKQIFNHLTMSFDSNRLTVLLGDNGAGKSTLLRMIAGIEKANDGTINYFGEKWNQRQIQNHIGYVPQDIALFEHMTVAENIKFFKSLCKNPINDTTINEYLQQLNFDDTSAKVSTLSGGNKRKINILVGLLGQPRILILDEPTVGIDLKSRHDIHQLLNIMKSKCLIILTTHHLDEVEALADDIKLIGQDPFYQHVLEDKQWTYTYY | not soluble
MGSDKIHHHHHHMKDSFRTIYNGASVPLAEIPPVDINEFLQGILDSVDRGWRIVSYFGIPAPSSTALVCILANKAEGRLAAARTETSDSHVPSLSSLITQVQLFEREIAEQCGLIFDGHPWFKPVRFHHSFVPGRDAWDRTADEPLRVGVMDYYQVAGDEVHEVAVGPVHAGIIEPGHFRFQCHGEEVFHLEISLGYQHRGIEAGLAGGPHPRTLQVMETAAGDTTIGHGQAYCMIMESLGGIKAPPRAEVLRGIALELERLANHTGDLGAIAGDVGYLPTSSFCGRIRGDFLNMTAVLCGSRFGRGLLVPGGTIFDLTPGLRDDLLKRLAEARRDLTNAIELLWSSPSVMGRLEGTGTLTREQALELGLVGPAARACGIKRDVRLDYPFGIYRMTHLPVATVFHGDVCARTMIRWLEAQKSMDFIEEQLRQLPGGGHRVATAPCAGGRLAVALTEGWRGEICHVAVTDDAGRFSRYKIVDPSFHNWQGLALALRGQQISDFPLCNKSFNLSYCGFDL | not soluble
VFRQTFLEFSQRTVSQARLDIGRKKLQELSSTFARAENEFGVPAGVIAAFWAMETDFGAVQGDFNTRNALVTLSHDCRRPELFRPQLLALIEMVQHGDLDPATNTGAWAGEIGQVQMLPKDIIAFGVDGDGNGHINVKDSAPDAILTAAKFIQHLGFKKGEPWMQEVSVPENLPWEKSGLGGSLTAGDWFALGVTPRDGNKNFASLPAALIMPQGRKGPTFITYPNFNIYLEWNQSFIYTTSAAYFANRLMGAPVY | not soluble
MPRFSNKTVIITGSSNGIGRTTAILFAQEGANVTITGRSSERLEETRQIILKSGVSEKQVNSVVADVTTEDGQDQIINSTLKQFGKIDVLVNNAGAAIPDAFGTTGTDQGIDIYHKTLKLNLQAVIEMTKKVKPHLVASKGEIVNVSSIVAGPQAQPDFLYYAIAKAALDQYTRSTAIDLAKFGIRVNSVSPGMVETGFTNAMGMPDQASQKFYNFMASHKECIPIGAAGKPEHIANIILFLADRNLSFYILGQSIVADGGTSLVMGTQAHDVMSIMSSH | soluble
MGSDKIHHHHHHLSCCGQIGKITVGNGIWGILEEGMQSKAGTADQGWALEEKLDEFNRHQHPFNGSGADESFAYVIKKGDQVVGGVAASSDDNAIGYIELLWVDETMRRQGLGRALLATVEQALQAAGCKRVRLETFDYQAPAFYLENGYHEFGKLNYDYAGVIEYFFVKMLSLPIGYNIPPAFSIEAAEDLAMEAIENKLHAYNVKMKPLLQQKMGVTFTFLAEENGQCIGGIFGYSTMYKIGYIESLWVAETNRHAGVGTALVDVLVNALKDFGCPIVHLDTMSYQGAAFYKALGFEQFGQLTYPEIDAAEVFFVKHLVSVGERTINANK | not soluble
GSRSEPAKVVDIRIDTSAERKPISPYIYGSNQELDATVTAKRFGGNRTTGYNWENNFSNAGSDWLHYSDTYLLEDGGVPKGEWSTPASVVTTFHDKALSKNVPYTLITLQAAGYVSADGNGPVSQEETAPSSRWKEVKFEKGAPFSLTPDTEDDYVYMDEFVNYLVNKYGNASTPTGIKGYSIDNEPALWSHTHPRIHPDNVTAKELIEKSVALSKAVKKVDPYAEIFGPALYGFAAYETLQSAPDWGTEGEGYRWFIDYYLDKMKKASDEEGKRLLDVLDVHWYPEARGGGERICFGADPRNIETNKARLQAPRTLWDPTYIEDSWIGQWKKDFLPILPNLLDSIEKYYPGTKLAITEYDYGGGNHITGGIAQADVLGIFGKYGVYLATFWGDASNNYTEAGINLYTNYDGKGGKFGDTSVKCETSDIEVSSAYASIVGEDDSKLHIILLNKNYDQPTTFNFSIDSSKNYTIGNVWAFDRGSSNITQRTPIVNIKDNTFTYTVPALTACHIVLEAAEP | soluble
MGSDKIHHHHHHMSLKFDFSNLFEPNISGGLTDEDVKSVEEKVTSAVRNFVENTPDFAKLDRSWIDSVKSLEDWIINFDTVVVLGIGGSGLGNLALHYSLRPLNWNEMTREERNGYARVFVVDNVDPDLMSSVLDRIDPKTTLFNVISKSGSTAEVMATYSIARGILEAYGLDPREHMLITTDPEKGFLRKLVKEEGFRSLEVPPGVGGRFSVLTPVGLLSAMAEGIDIDELHEGAKDAFEKSMKENILENPAAMIALTHYLYLNKGKSISVMMAYSNRMIYLVDWYRQLWAESLGKRYNLKGEEVFTGQTPVKALGATDQHSQIQLYNEGPNDKVITFLRVENFDREIVIPETGRAELSYLARKKLSELLLAEQTGTEEALRENNRPNMRVTFDGLTPYNVGQFFAYYEAATAFMGYLLEINPFDQPGVELGKKITFALMGREGYTYEIKERSKKVIIE | soluble
RTHIIGIDQTLVDIEAKVDDAFIEKYGLSKGHSLVIDNDKAEMLYNELKDNNMISNEFAGGTIGNTLHNYSVLADDKSTLLGVMSEDIHIGSYSYRYLCNTSSRMDLNYLQPVPGAIGRCFALISEDGERTFAISEGDMNQLRAESIPEKIFKNASALVLTAYLVRCKEGDPMPEATMKAIEYAKKYDVPVVLTMGTKFVVQDDPQYWRDFLNDHVTVVAMNEEEGEALTGATDPLEAANKTLEWVDLVLCTAGPVGLYMAGYTEDSAKRETSLPLLPGTIAEFNQFEFSRPAVKDSCENPIKVFSHISPYMGGPEKIKNTNGAGDGALSALLHDMAANHYHRNNVPNSSKHQHSFLTYSSFSQVCKYSNRVSFEVLAQHSPRLSRGLPEREDSLEEAYWE | soluble
MKWTGEDVALYERERDYIDTALLPLLPVAFGQGAKRLASGGELVGLIAAEVERQLKGRLFLMPSFVYFADEPRALLTERLADWTNRLRREGMKHLFYVTCDRAWQEGEEADRVWFVPVVPLESMGESYKHELVREQAAELLRFLIGRWAQE | not soluble
GAMAGMNIKDRTSEFQQSVLSYKKRNKNFREQQRERLQEKESENFANNTT | soluble
KHLPQILCEAMTREAETMAMPDPKLPEEINRTFMQTYADVEQLVPPAKVDRHGSVCIYLPSPASSEEAEANLSWEEQILQDLPRFIIGLQKRGYAPSDIAILVRKTYQAREIARAMLSYQPEPDEEDYPLIPMSDESLSLSGAASIRFLSNLLKFISRPQSDALRQIAYLSYEELRKEKGLAPTEEGNFSAAELAEFANLRRRSLYELAEGLVSFFHSYLPEREMPYLIAWLDLINDFGHERSADLHSFLQWWDETGHAKSRISSAPNSQAVTLMTIHKAKGLGFRVVLIPFLDWNLDDEAAHRHILWCKIDPARSPFNILPVVPIRYKKEMAQTMFATDYFRERADILLDNLNLLYVATTRAKDEMHLWLHPSQKPESLSTVGDLIHLALASLDENKTESDMYCWGSPVISARQKTTDHPSSGLPFTLPKGSLSAVADRLAIRPEGSEFYRRHKPLYHGHVMHRILADIVLAKDIEPALERYVSGGIVTRDEAIELVDRLSVVTSDSRLSRWFDGSGRVLNEQDILLPEGEQRRPDRIILYDDHTDIVDYKFGAVRKVHHAQMENYIRLLVSMGYPSVRGYLWYLPNNEIVGVRSVRGITRSKGEERKEGKGERGIERKAK | not soluble
YRQQFDFSCGSAALASLLTFHYDDSVDEQSVFVDMFQHGDQEKIRREGFSMLDMKRYLERRGYGSDGFKINLDQLYSTGSPAITIINHNGYMHFVIIKGVDEDRVLVGDPAQGVKSMDRTEFERMWGNRIVFLIHNHVD | not soluble
GPGSMYTHTRMHTTSASATLLSLPLCVRASPTNTPAAQLSALSDHLGLRVIKTNNLHTSSRSNMPAKAAAKPVKPAAKAAPKPANKAPAPKAAAAKPVAKAAPKAAAPAARPASGSSNGVYVKNWGTGSVADAANVFSAAGKVVKVQLRRQRYAIVFFENSAAVKKAIDLFNEKEVLGKTVLVVPAKTSPKPDAHENSSCVFVSPIFRPSTTKAQVMELFAGVKVQRLRMYRQNFAYAYLDSPAAAKKFVEEKNGTEFRGHTLRVALSARSLEKLRARQEAANVVIAAHRHYKTHERQ | not soluble
MGSDKIHHHHHHMKNRAGEYRTNLTGELQYRSFLPYPLPPSPPIELDEETIKLLAKANRSIGILEGMSRQIPDIDLFVSMYVRKEALLSSQIEGTQVTLDDILDPNIEENTNQNVADVINYIKASHYGSARLAELPLCNRLLKEIHEILMQDVRGGEKSPGEFRSSQNWIGPAGSTLRDARYIPPHPEDMLEAMSDLEKFINSEDELDPLIKIALIHYQFETIHPFLDGNGRIGRLLIALYLINQNLLSHETLYISYFLKRNRIEYYDRLTEVRSKGNFEQWLKFFLLAAYESAQDAIDTIERILKLHYKNVEVVKNTGKASKTVMKVFNYLESSPIIDIKKTSLALELSFNTVSNAVNKLVELGILKQTENVRRSRVFAYEEYLEILRKDT | not soluble
